The values below come from the supplement of paper PMC5998384.

The subject of series [1] is HeLa Kyoto. Kind of series: thermal stability score vs G1/S (z-score of summed log2 fold changes over temperatures); higher = more thermally stable than in G1/S.
Series [2] has as its system HeLa Kyoto. Kind of series: solubility in G1/S (NP-40 vs SDS abundance) (log2 ratio); higher = more soluble. To be noted: cell cycle stage: G1/S.
Series [3] concerns HeLa Kyoto. Kind of series: melting temperature (median over replicates), in situ; higher = more thermally stable.
For series [4], the system named is HeLa Kyoto. As to the kind of experiment: solubility change mitosis vs G1/S (difference of NP-40 vs SDS log2 ratios) (log2 ratio difference); higher = more soluble in mitosis.
Where [5] appears, read: cell cycle stage: early G1 (4.5 h after nocodazole release).
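Throughout, for melting temperature (median over replicates), in situ: HeLa Kyoto cells synchronized by double thymidine or nocodazole block, proteins quantified by TMT10plex mass spectrometry, three independent biological replicates.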
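Throughout, for solubility change mitosis vs G1/S (difference of NP-40 vs SDS log2 ratios): synchronized HeLa Kyoto cells (double thymidine block for G1/S, nocodazole release for mitosis), protein amounts in NP-40 versus SDS lysates quantified by mass spectrometry, three biological replicates.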
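Throughout, for solubility in G1/S (NP-40 vs SDS abundance): HeLa Kyoto cells arrested at G1/S by double thymidine block, proteins quantified by TMT10plex mass spectrometry in mild NP-40 versus SDS extracts, three biological replicates.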
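Throughout, for thermal stability score vs G1/S (z-score of summed log2 fold changes over temperatures): synchronized HeLa Kyoto cells, proteins quantified by TMT10plex mass spectrometry, three biological replicates, mitosis taken 0.5 h after nocodazole release, G1/S directly after double thymidine block.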

With “METGAAELYDQALLGILQHVGNVQDFLRVLFGFLYRKTDFYRLLRHPSDRMGFPPGAAQALVLQVFKTFDHMARQDDEKRRQELEEKIRRKEEEEAKTVSAAAAEKEPVPVPVQEIEIDSTTELDGHQEVEKVQPPGPVKEMAHGSQEAEAPGAVAGAAEVPREPPILPRIQEQFQKNPDSYNGAVRENYTWSQDYTDLEVRVPVPKHVVKGKQVSVALSSSSIRVAMLEENGERVLMEGKLTHKINTESSLWSLEPGKCVLVNLSKVGEYWWNAILEGEEPIDIDKINKERSMATVDEEEQAVLDRLTFDYHQKLQGKPQSHELKVHEMLKKGWDAEGSPFRGQRFDPAMFNISPGAVQF [NUDCD3]”, the thermal stability score in series [1] (setting [5]) is 0.442; in series [1] (cell cycle stage: mitosis), 0.3. Further, the “solubility in G1/S (log2)” value in series [2] is 0.212. In addition, the figures for the melting temperature in series [3] (cell cycle stage: G1/S) and in series [3] (cell cycle stage: mitosis) were 51 °C and 50.9 °C, respectively. Also, the “solubility change mitosis (log2)” value in series [4] was -0.097.
With “MASPSLERPEKGAGKSEFRNQKPKPENQDESELLTVPDGWKEPAFSKEDNPRGLLEESSFATLFPKYREAYLKECWPLVQKALNEHHVNATLDLIEGSMTVCTTKKTFDPYIIIRARDLIKLLARSVSFEQAVRILQDDVACDIIKIGSLVRNKERFVKRRQRLIGPKGSTLKALELLTNCYIMVQGNTVSAIGPFSGLKEVRKVVLDTMKNIHPIYNIKSLMIKRELAKDSELRSQSWERFLPQFKHKNVNKRKEPKKKTVKKEYTPFPPPQPESQIDKELASGEYFLKANQKKRQKMEAIKAKQAEAISKRQEERNKAFIPPKEKPIVKPKEASTETKIDVASIKEKVKKAKNKKLGALTAEEIALKMEADEKKKKKKK [KRR1]”, the figures for the thermal stability score in series [1] (setting [5]) and in series [1] (cell cycle stage: mitosis) were 3.32 and 4.5, respectively. Moreover, the “solubility in G1/S (log2)” value in series [2] was -1.22. Besides, the figures for the melting temperature in series [3] (cell cycle stage: G1/S) and in series [3] (cell cycle stage: mitosis) were 51.3 °C and 50.1 °C, respectively. The “solubility change mitosis (log2)” value in series [4] is 0.79.
With “MAFNFGAPSGTSGTAAATAAPAGGFGGFGTTSTTAGSAFSFSAPTNTGTTGLFGGTQNKGFGFGTGFGTTTGTSTGLGTGLGTGLGFGGFNTQQQQQTTLGGLFSQPTQAPTQSNQLINTASALSAPTLLGDERDAILAKWNQLQAFWGTGKGYFNNNIPPVEFTQENPFCRFKAVGYSCMPSNKDEDGLVVLVFNKKETEIRSQQQQLVESLHKVLGGNQTLTVNVEGTKTLPDDQTEVVIYVVERSPNGTSRRVPATTLYAHFEQANIKTQLQQLGVTLSMTRTELSPAQIKQLLQNPPAGVDPIIWEQAKVDNPDSEKLIPVPMVGFKELLRRLKVQDQMTKQHQTRLDIISEDISELQKNQTTSVAKIAQYKRKLMDLSHRTLQVLIKQEIQRKSGYAIQADEEQLRVQLDTIQGELNAPTQFKGRLNELMSQIRMQNHFGAVRSEERYYIDADLLREIKQHLKQQQEGLSHLISIIKDDLEDIKLVEHGLNETIHIRGGVFS [NUP54]”, the figures for the thermal stability score in series [1] (setting [5]) and in series [1] (cell cycle stage: mitosis) were -3.43 and -5.53, respectively. Besides, the “solubility in G1/S (log2)” value in series [2] is 0.299. Moreover, the melting temperature in series [3] (cell cycle stage: G1/S) worked out at 51.5 °C; in series [3] (cell cycle stage: mitosis), 49 °C. Further, in series [4], the “solubility change mitosis (log2)” value is 0.0698.
Regarding “MLGFITRPPHRFLSLLCPGLRIPQLSVLCAQPRPRAMAISSSSCELPLVAVCQVTSTPDKQQNFKTCAELVREAARLGACLAFLPEAFDFIARDPAETLHLSEPLGGKLLEEYTQLARECGLWLSLGGFHERGQDWEQTQKIYNCHVLLNSKGAVVATYRKTHLCDVEIPGQGPMCESNSTMPGPSLESPVSTPAGKIGLAVCYDMRFPELSLALAQAGAEILTYPSAFGSITGPAHWEVLLRARAIETQCYVVAAAQCGRHHEKRASYGHSMVVDPWGTVVARCSEGPGLCLARIDLNYLRQLRRHLPVFQHRRPDLYGNLGHPLS [NIT1]”, the thermal stability score in series [1] (setting [5]) was -1.82; in series [1] (cell cycle stage: mitosis), -2.71. Moreover, the “solubility in G1/S (log2)” value in series [2] amounted to 0.248. Further, the melting temperature in series [3] (cell cycle stage: G1/S) is 54.7 °C; in series [3] (cell cycle stage: mitosis), 55.1 °C. Besides, the “solubility change mitosis (log2)” value in series [4] was -0.133.
Take “MSSPASTPSRRGSRRGRATPAQTPRSEDARSSPSQRRRGEDSTSTGELQPMPTSPGVDLQSPAAQDVLFSSPPQMHSSAIPLDFDVSSPLTYGTPSSRVEGTPRSGVRGTPVRQRPDLGSAQKGLQVDLQSDGAAAEDIVASEQSLGQKLVIWGTDVNVAACKENFQRFLQRFIDPLAKEEENVGIDITEPLYMQRLGEINVIGEPFLNVNCEHIKSFDKNLYRQLISYPQEVIPTFDMAVNEIFFDRYPDSILEHQIQVRPFNALKTKNMRNLNPEDIDQLITISGMVIRTSQLIPEMQEAFFQCQVCAHTTRVEMDRGRIAEPSVCGRCHTTHSMALIHNRSLFSDKQMIKLQESPEDMPAGQTPHTVILFAHNDLVDKVQPGDRVNVTGIYRAVPIRVNPRVSNVKSVYKTHIDVIHYRKTDAKRLHGLDEEAEQKLFSEKRVELLKELSRKPDIYERLASALAPSIYEHEDIKKGILLQLFGGTRKDFSHTGRGKFRAEINILLCGDPGTSKSQLLQYVYNLVPRGQYTSGKGSSAVGLTAYVMKDPETRQLVLQTGALVLSDNGICCIDEFDKMNESTRSVLHEVMEQQTLSIAKAGIICQLNARTSVLAAANPIESQWNPKKTTIENIQLPHTLLSRFDLIFLLLDPQDEAYDRRLAHHLVALYYQSEEQAEEELLDMAVLKDYIAYAHSTIMPRLSEEASQALIEAYVDMRKIGSSRGMVSAYPRQLESLIRLAEAHAKVRLSNKVEAIDVEEAKRLHREALKQSATDPRTGIVDISILTTGMSATSRKRKEELAEALKKLILSKGKTPALKYQQLFEDIRGQSDIAITKDMFEEALRALADDDFLTVTGKTVRLL [MCM4]”: the thermal stability score in series [1] (setting [5]) amounted to 0.944; in series [1] (cell cycle stage: mitosis), 0.88. In series [2], the “solubility in G1/S (log2)” value is 0.157. The melting temperature in series [3] (cell cycle stage: G1/S) stood at 50.6 °C; in series [3] (cell cycle stage: mitosis), 50.4 °C. Further, the “solubility change mitosis (log2)” value in series [4] was -0.0425.
